From PMC5091643, “Dimer/monomer status and in vivo function of salt‐bridge mutants of the plant UV‐B photoreceptor UVR8” (The Plant Journal, 2016)

Experiments:
[1] = target: T1, UV … LOCUS8 (UVR8), purified wild-type (Arabidopsis thaliana), Q9FN03; assay: SEC; purified proteins not exposed to UV-B; Superdex 200 HR10/30, 50 mM Tris pH 7.5, 150 mM NaCl, 1 mM β-ME, 0.02% sodium azide, 4°C; dimer to monomers; conditions: remark: other sources report otherwise
T1 chain: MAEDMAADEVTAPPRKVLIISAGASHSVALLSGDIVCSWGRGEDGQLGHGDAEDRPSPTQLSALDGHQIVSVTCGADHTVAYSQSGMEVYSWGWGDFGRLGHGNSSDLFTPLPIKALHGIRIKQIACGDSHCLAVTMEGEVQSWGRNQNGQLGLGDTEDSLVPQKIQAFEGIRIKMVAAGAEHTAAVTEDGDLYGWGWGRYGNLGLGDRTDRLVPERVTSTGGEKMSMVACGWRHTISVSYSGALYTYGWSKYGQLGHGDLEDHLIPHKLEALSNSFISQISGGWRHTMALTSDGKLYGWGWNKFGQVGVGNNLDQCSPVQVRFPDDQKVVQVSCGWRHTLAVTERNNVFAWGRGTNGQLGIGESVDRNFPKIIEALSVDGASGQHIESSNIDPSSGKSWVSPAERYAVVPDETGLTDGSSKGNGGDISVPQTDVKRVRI

[2] = target: the molecule itself; assay: cross-linking; DSP (4 mM, 30 min on ice) added to PBS extracts of transgenic uvr8-1 plants not exposed to UV-B; 10% SDS-PAGE without β-ME, blot with anti-UVR8
[3] = target: the molecule itself; assay: SEC; purified proteins not exposed to UV-B; Superdex 200 HR10/30, 50 mM Tris pH 7.5, 150 mM NaCl, 1 mM β-ME, 0.02% sodium azide, 4°C; dimer to monomers
[4] = target: T2, GFP-UVR8 (wild type) transiently expressed in Nicotiana benthamiana (Arabidopsis thaliana), Q9FN03; assay: SEC; GFP fusions transiently expressed in N. benthamiana, not exposed to UV-B, immunoprecipitated with anti-GFP microbeads; eluates on Superdex 200, fractions blotted with anti-GFP; conditions: remark: other sources report otherwise
T2 chain: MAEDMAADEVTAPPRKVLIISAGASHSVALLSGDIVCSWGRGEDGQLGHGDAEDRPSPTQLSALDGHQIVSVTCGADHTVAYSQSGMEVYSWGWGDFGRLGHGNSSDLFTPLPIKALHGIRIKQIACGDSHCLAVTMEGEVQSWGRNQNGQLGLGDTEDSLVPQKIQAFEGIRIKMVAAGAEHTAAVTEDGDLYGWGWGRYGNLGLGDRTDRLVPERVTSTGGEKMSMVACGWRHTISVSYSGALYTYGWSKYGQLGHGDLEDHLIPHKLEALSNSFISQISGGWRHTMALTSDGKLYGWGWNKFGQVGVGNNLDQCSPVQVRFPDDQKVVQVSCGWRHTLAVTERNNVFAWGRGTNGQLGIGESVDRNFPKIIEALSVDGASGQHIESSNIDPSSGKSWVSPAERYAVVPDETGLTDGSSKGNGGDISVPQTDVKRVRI

[5] = target: T3, GFP-UVR8 (wild type) in transgenic Arabidopsis uvr8-1 (Arabidopsis thaliana), Q9FN03; assay: SDS-PAGE with non-boiled samples; whole cell extracts of transgenic uvr8-1 plants not exposed to UV-B; SDS-loading buffer, not boiled, 7.5% gel, blot with anti-UVR8; conditions: remark: other sources report otherwise
T3 chain: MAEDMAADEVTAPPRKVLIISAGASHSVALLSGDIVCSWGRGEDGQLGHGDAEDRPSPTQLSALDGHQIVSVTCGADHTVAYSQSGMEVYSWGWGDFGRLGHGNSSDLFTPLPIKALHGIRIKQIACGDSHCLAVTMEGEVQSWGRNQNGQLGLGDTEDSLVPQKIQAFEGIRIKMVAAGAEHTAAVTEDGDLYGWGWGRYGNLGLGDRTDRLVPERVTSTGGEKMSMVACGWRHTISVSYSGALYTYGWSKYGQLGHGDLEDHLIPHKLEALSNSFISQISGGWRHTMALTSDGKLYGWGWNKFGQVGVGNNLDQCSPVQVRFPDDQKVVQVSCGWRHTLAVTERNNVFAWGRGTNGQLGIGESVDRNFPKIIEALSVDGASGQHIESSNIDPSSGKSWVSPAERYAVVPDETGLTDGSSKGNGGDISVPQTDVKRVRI

[6] = target: T3, GFP-UVR8 (wild type) in transgenic …; assay: cross-linking; DSP (4 mM, 30 min on ice) added to PBS extracts of transgenic uvr8-1 plants not exposed to UV-B; 10% SDS-PAGE without β-ME, blot with anti-UVR8; conditions: remark: other sources report otherwise

B1: UV … LOCUS8 (UVR8), purified wild-type, Q9FN03 1-440 (natural protein)
chain: MAEDMAADEVTAPPRKVLIISAGASHSVALLSGDIVCSWGRGEDGQLGHGDAEDRPSPTQLSALDGHQIVSVTCGADHTVAYSQSGMEVYSWGWGDFGRLGHGNSSDLFTPLPIKALHGIRIKQIACGDSHCLAVTMEGEVQSWGRNQNGQLGLGDTEDSLVPQKIQAFEGIRIKMVAAGAEHTAAVTEDGDLYGWGWGRYGNLGLGDRTDRLVPERVTSTGGEKMSMVACGWRHTISVSYSGALYTYGWSKYGQLGHGDLEDHLIPHKLEALSNSFISQISGGWRHTMALTSDGKLYGWGWNKFGQVGVGNNLDQCSPVQVRFPDDQKVVQVSCGWRHTLAVTERNNVFAWGRGTNGQLGIGESVDRNFPKIIEALSVDGASGQHIESSNIDPSSGKSWVSPAERYAVVPDETGLTDGSSKGNGGDISVPQTDVKRVRI
stoichiometry N [1]: 2

B2: GFP-UVR8^R286K in transgenic Arabidopsis uvr8-1 (natural protein, Arabidopsis thaliana, UniProt Q9FN03 1-440, looked up)
chain: MAEDMAADEVTAPPRKVLIISAGASHSVALLSGDIVCSWGRGEDGQLGHGDAEDRPSPTQLSALDGHQIVSVTCGADHTVAYSQSGMEVYSWGWGDFGRLGHGNSSDLFTPLPIKALHGIRIKQIACGDSHCLAVTMEGEVQSWGRNQNGQLGLGDTEDSLVPQKIQAFEGIRIKMVAAGAEHTAAVTEDGDLYGWGWGRYGNLGLGDRTDRLVPERVTSTGGEKMSMVACGWRHTISVSYSGALYTYGWSKYGQLGHGDLEDHLIPHKLEALSNSFISQISGGWKHTMALTSDGKLYGWGWNKFGQVGVGNNLDQCSPVQVRFPDDQKVVQVSCGWRHTLAVTERNNVFAWGRGTNGQLGIGESVDRNFPKIIEALSVDGASGQHIESSNIDPSSGKSWVSPAERYAVVPDETGLTDGSSKGNGGDISVPQTDVKRVRI
notes: UV … LOCUS8 (UVR8), Arabidopsis thaliana; Sub-cloned into pEZR(K)L-C downstream of eGFP; also called line 2-3; source: transgenic Arabidopsis uvr8-1 plants (CaMV 35S promoter), in whole cell extract; not shown: eGFP, N-terminal, kept
stoichiometry N [2]: 2

B3: GFP-UVR8^R146A in transgenic Arabidopsis uvr8-1 (natural protein, Arabidopsis thaliana, UniProt Q9FN03 1-440, looked up)
chain: MAEDMAADEVTAPPRKVLIISAGASHSVALLSGDIVCSWGRGEDGQLGHGDAEDRPSPTQLSALDGHQIVSVTCGADHTVAYSQSGMEVYSWGWGDFGRLGHGNSSDLFTPLPIKALHGIRIKQIACGDSHCLAVTMEGEVQSWGANQNGQLGLGDTEDSLVPQKIQAFEGIRIKMVAAGAEHTAAVTEDGDLYGWGWGRYGNLGLGDRTDRLVPERVTSTGGEKMSMVACGWRHTISVSYSGALYTYGWSKYGQLGHGDLEDHLIPHKLEALSNSFISQISGGWRHTMALTSDGKLYGWGWNKFGQVGVGNNLDQCSPVQVRFPDDQKVVQVSCGWRHTLAVTERNNVFAWGRGTNGQLGIGESVDRNFPKIIEALSVDGASGQHIESSNIDPSSGKSWVSPAERYAVVPDETGLTDGSSKGNGGDISVPQTDVKRVRI
notes: UV … LOCUS8 (UVR8), Arabidopsis thaliana; Sub-cloned into pEZR(K)L-C downstream of eGFP; also called line 9; source: transgenic Arabidopsis uvr8-1 plants (CaMV 35S promoter), in whole cell extract; not shown: eGFP, N-terminal, kept
stoichiometry N [2]: 2

B4: UVR8^R286K, purified (natural protein, Arabidopsis thaliana, UniProt Q9FN03 1-440, looked up)
chain: MAEDMAADEVTAPPRKVLIISAGASHSVALLSGDIVCSWGRGEDGQLGHGDAEDRPSPTQLSALDGHQIVSVTCGADHTVAYSQSGMEVYSWGWGDFGRLGHGNSSDLFTPLPIKALHGIRIKQIACGDSHCLAVTMEGEVQSWGRNQNGQLGLGDTEDSLVPQKIQAFEGIRIKMVAAGAEHTAAVTEDGDLYGWGWGRYGNLGLGDRTDRLVPERVTSTGGEKMSMVACGWRHTISVSYSGALYTYGWSKYGQLGHGDLEDHLIPHKLEALSNSFISQISGGWKHTMALTSDGKLYGWGWNKFGQVGVGNNLDQCSPVQVRFPDDQKVVQVSCGWRHTLAVTERNNVFAWGRGTNGQLGIGESVDRNFPKIIEALSVDGASGQHIESSNIDPSSGKSWVSPAERYAVVPDETGLTDGSSKGNGGDISVPQTDVKRVRI
notes: UV … LOCUS8 (UVR8), Arabidopsis thaliana; source: E. coli, purified as described previously (Christie et al., 2012)
stoichiometry N [3]: 2

B5: GFP-UVR8 (wild type) transiently expressed in Nicotiana benthamiana, Q9FN03 1-440 (natural protein)
chain: MAEDMAADEVTAPPRKVLIISAGASHSVALLSGDIVCSWGRGEDGQLGHGDAEDRPSPTQLSALDGHQIVSVTCGADHTVAYSQSGMEVYSWGWGDFGRLGHGNSSDLFTPLPIKALHGIRIKQIACGDSHCLAVTMEGEVQSWGRNQNGQLGLGDTEDSLVPQKIQAFEGIRIKMVAAGAEHTAAVTEDGDLYGWGWGRYGNLGLGDRTDRLVPERVTSTGGEKMSMVACGWRHTISVSYSGALYTYGWSKYGQLGHGDLEDHLIPHKLEALSNSFISQISGGWRHTMALTSDGKLYGWGWNKFGQVGVGNNLDQCSPVQVRFPDDQKVVQVSCGWRHTLAVTERNNVFAWGRGTNGQLGIGESVDRNFPKIIEALSVDGASGQHIESSNIDPSSGKSWVSPAERYAVVPDETGLTDGSSKGNGGDISVPQTDVKRVRI
stoichiometry N [4]: 2

B6: UVR8^R146A, purified (natural protein, Arabidopsis thaliana, UniProt Q9FN03 1-440, looked up)
chain: MAEDMAADEVTAPPRKVLIISAGASHSVALLSGDIVCSWGRGEDGQLGHGDAEDRPSPTQLSALDGHQIVSVTCGADHTVAYSQSGMEVYSWGWGDFGRLGHGNSSDLFTPLPIKALHGIRIKQIACGDSHCLAVTMEGEVQSWGANQNGQLGLGDTEDSLVPQKIQAFEGIRIKMVAAGAEHTAAVTEDGDLYGWGWGRYGNLGLGDRTDRLVPERVTSTGGEKMSMVACGWRHTISVSYSGALYTYGWSKYGQLGHGDLEDHLIPHKLEALSNSFISQISGGWRHTMALTSDGKLYGWGWNKFGQVGVGNNLDQCSPVQVRFPDDQKVVQVSCGWRHTLAVTERNNVFAWGRGTNGQLGIGESVDRNFPKIIEALSVDGASGQHIESSNIDPSSGKSWVSPAERYAVVPDETGLTDGSSKGNGGDISVPQTDVKRVRI
notes: as for B4
stoichiometry N [3]: 2

B7: GFP-UVR8 (wild type) in transgenic Arabidopsis uvr8-1, Q9FN03 1-440 (natural protein)
chain: MAEDMAADEVTAPPRKVLIISAGASHSVALLSGDIVCSWGRGEDGQLGHGDAEDRPSPTQLSALDGHQIVSVTCGADHTVAYSQSGMEVYSWGWGDFGRLGHGNSSDLFTPLPIKALHGIRIKQIACGDSHCLAVTMEGEVQSWGRNQNGQLGLGDTEDSLVPQKIQAFEGIRIKMVAAGAEHTAAVTEDGDLYGWGWGRYGNLGLGDRTDRLVPERVTSTGGEKMSMVACGWRHTISVSYSGALYTYGWSKYGQLGHGDLEDHLIPHKLEALSNSFISQISGGWRHTMALTSDGKLYGWGWNKFGQVGVGNNLDQCSPVQVRFPDDQKVVQVSCGWRHTLAVTERNNVFAWGRGTNGQLGIGESVDRNFPKIIEALSVDGASGQHIESSNIDPSSGKSWVSPAERYAVVPDETGLTDGSSKGNGGDISVPQTDVKRVRI
stoichiometry N [5]: 2 | stoichiometry N [6]: 2
